Measurements: PMC7949044, “The cytoplasmic domain of the AAA+ protease FtsH is tilted with respect to the membrane to facilitate substrate entry” (The Journal of Biological Chemistry, 2020)

B1: AaFtsH hexamer (Aquifex aeolicus VF5) (protein)
chain: MNALKNFFIWAIIIGAAIVAFNLFEGKREFTTKVSLNEVVKLVEEGKVSYAEVRGNTAIIQTKDGQKLEVTLPPNTNLVDKMVEKGVRVEVANPEPPGGWLVNVFLSWLPILFFIGIWIFLLRQMSGGGNVNRAFNFGKSRAKVYIEEKPKVTFKDVAGIEEVKEEVKEIIEYLKDPVKFQKLGGRPPKGVLLYGEPGVGKTLLAKAIAGEAHVPFISVSGSDFVEMFVGVGAARVRDLFETAKKHAPCIIFIDEIDAVGRARGAIPVGGGHDEREQTLNQLLVEMDGFDTSDGIIVIAATNRPDILDPALLRPGRFDRQIFIPKPDVRGRYEILKVHARNKKLAKDVDLEFVARATPGFTGADLENLLNEAALLAARKGKEEITMEEIEEALDRITMGLERKGMTISPKEKEKIAIHEAGHALMGLVSDDDDKVHKISIIPRGMALGVTQQLPIEDKHIYDKKDLYNKILVLLGGRAAEEVFFGKDGITTGAENDLQRATDLAYRMVSMWGMSDKVGPIAIRRVANPFLGGMTTAVDTSPDLLREIDEEVKRIITEQYEKAKAIVEEYKEPLKAVVKKLLEKETITCEEFVEVFKLYGIELKDKCKKEELFDKDRKSEENKELKSEEVKEEVV
B2: AaFtsH dodecamer (Aquifex aeolicus VF5) (protein)
chain: B1 chain
B3: full-length Aquifex aeolicus FtsH (enzyme, UniProt O67077 1-634, looked up)
chain: B1 chain
notes: the cited crystal structure PDB 4WW0 holds only the cytosolic domain, residues 141-608; The molecule is the protomer; In LMNG it is found as a hexamer (second SEC peak) and as a dodecamer of two hexamers in one LMNG micelle (first SEC peak); Before SEC it was incubated overnight at 60 °C with 20 mM ATP, 10 mM MgCl2 and 25 uM ZnCl2; also called AaFtsH; AaFtsH wildtype; source: E. coli, …

Experiments:
[1] = target: AaFtsH-Δ20 mutant (Aquifex aeolicus) (UniProt O67077); test: SEC-MALS; Superose 6 Increase 10/300 GL, 20 mM Tris-HCl pH 8.0, 150 mM NaCl, 0.01% LMNG, room temperature; protein conjugate analysis; step: subunits to hexamer (second peak)
purified protein = substrate: Nc1ncnc2c1ncn2[C@@H]1O[C@H](COP(=O)(O)OP(=O)(O)OP(=O)(O)O)[C@@H](O)[C@H]1O; test: purified protein; conditions: 50 mM Tris-HCl pH 8.0, 150 mM NaCl, 10 mM MgCl2, 60 °C, 0.25 μM AaFtsH (monomer concentration)
[2] = target: the molecule itself; test: SEC-MALS; Superose 6 Increase 10/300 GL, 20 mM Tris-HCl pH 8.0, 150 mM NaCl, 0.01% LMNG, room temperature; protein conjugate analysis; step: subunits to hexamer (second peak)
[3] = target: the molecule itself; test: SEC-MALS; Superose 6 Increase 10/300 GL, 20 mM Tris-HCl pH 8.0, 150 mM NaCl, 0.01% LMNG, room temperature; protein conjugate analysis; step: two hexamers to a dodecamer in one LMNG micelle (first peak)

| Molecule | stoichiometry N [1] | Km (purified protein) | kcat (purified protein) | stoichiometry N [2] | stoichiometry N [3] |
| --- | --- | --- | --- | --- | --- |
| AaFtsH-Δ20 mutant (from UniProt O67077 1-634) (enzyme) | 6 |  |  |  |  |
| B1 |  | 600 (95% CI: 480–754) μM | 63 min⁻¹ |  |  |
| B2 |  | 518 (95% CI: 432–625) μM | 61 min⁻¹ |  |  |
| B3 |  |  |  | 6 | ~12 |
